Results as given in patent US20040146507A1 (Genentech, published 2004).
Positions count from the first letter of the chain named.

T1: rhesus CD11a (rhesus, UniProt H9Z8N3 26-1169)
T1 construct: whole, on cells; On rhesus peripheral blood lymphocytes or leukocytes; also called rhCD11a
T1 sequence: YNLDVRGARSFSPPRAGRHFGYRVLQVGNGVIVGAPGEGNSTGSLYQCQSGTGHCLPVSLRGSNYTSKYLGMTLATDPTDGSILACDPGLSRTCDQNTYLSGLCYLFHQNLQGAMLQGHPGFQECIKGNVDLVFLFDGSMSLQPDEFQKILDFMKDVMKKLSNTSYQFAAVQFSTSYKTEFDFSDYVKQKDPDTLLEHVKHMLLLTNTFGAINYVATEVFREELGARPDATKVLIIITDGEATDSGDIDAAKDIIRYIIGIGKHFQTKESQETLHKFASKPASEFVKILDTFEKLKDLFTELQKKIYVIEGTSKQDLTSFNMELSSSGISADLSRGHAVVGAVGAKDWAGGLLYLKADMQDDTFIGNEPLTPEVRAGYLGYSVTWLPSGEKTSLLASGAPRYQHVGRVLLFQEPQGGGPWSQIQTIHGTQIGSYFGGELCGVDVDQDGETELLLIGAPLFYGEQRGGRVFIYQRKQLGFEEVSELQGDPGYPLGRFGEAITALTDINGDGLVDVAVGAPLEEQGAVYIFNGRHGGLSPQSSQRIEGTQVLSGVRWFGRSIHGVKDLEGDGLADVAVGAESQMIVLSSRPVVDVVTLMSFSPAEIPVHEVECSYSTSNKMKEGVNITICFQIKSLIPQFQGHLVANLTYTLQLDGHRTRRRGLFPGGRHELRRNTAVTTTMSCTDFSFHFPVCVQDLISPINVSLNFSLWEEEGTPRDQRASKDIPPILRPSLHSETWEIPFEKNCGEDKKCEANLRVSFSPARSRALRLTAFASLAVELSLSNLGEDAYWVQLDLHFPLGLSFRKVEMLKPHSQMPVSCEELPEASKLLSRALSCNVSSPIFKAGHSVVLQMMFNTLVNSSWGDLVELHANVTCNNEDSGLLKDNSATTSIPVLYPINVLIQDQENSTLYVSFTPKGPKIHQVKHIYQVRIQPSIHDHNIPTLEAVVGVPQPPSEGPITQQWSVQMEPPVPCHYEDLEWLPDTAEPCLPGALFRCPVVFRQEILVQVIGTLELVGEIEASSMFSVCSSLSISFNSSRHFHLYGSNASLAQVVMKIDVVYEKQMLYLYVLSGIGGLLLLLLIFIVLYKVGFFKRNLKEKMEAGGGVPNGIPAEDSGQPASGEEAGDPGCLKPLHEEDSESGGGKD

B1: HuIgG1 mutant AsnL92Ala (antibody, V domains shown)
VH: EVQLVESGGGLVQPGGSLRLSCAASGYSFTGHWMNWVRQAPGKGLEWVGMIHPSDSETRYNQKFKDRFTISVDKSKNTLYLQMNSLRAEDTAVYYCARGIYFYGTTYFDYWGQGTLVTVSS
VL: DIQMTQSPSSLSASVGDRVTITCRASKTISKYLAWYQQKPGKAPKLLIYSGSTLQSGVPSRFSGSGSGTDFTLTISSLQPEDFATYYCQQHAEYPLTFGQGTKVEIKR
notes: HuIgG1 mutant, human IgG1; Kabat numbering
B2: HuIgG1 mutant GluL93Ala (antibody, V domains shown)
VH: B1 VH
VL: B1 VL with A92N, E93A
notes: as for B1
B3: HuIgG1 mutant L1 (antibody, V domains shown)
VH: B1 VH
VL: B1 VL with K27A, T28A, S30A, K31A, A92N
notes: as for B1
B4: HuIgG1 mutant L2 (antibody, V domains shown)
VH: B1 VH
VL: B1 VL with S50A, S52A, T53A, A92N
notes: as for B1
B5: HuIgG1 mutant SerL50Ala (antibody, V domains shown)
VH: B1 VH
VL: B1 VL with S50A, A92N
notes: as for B1
B6: HuIgG1 mutant SerL52Ala (antibody, V domains shown)
VH: B1 VH
VL: B1 VL with S52A, A92N
notes: as for B1
B7: HuIgG1 mutant ThrL53Ala (antibody, V domains shown)
VH: B1 VH
VL: B1 VL with T53A, A92N
notes: as for B1
B8: HuIgG1 mutant TyrL94Ala (antibody, V domains shown)
VH: B1 VH
VL: B1 VL with A92N, Y94A
notes: as for B1
B9: HuIgG1 mutant ArgH58Ala (antibody, V domains shown)
VH: B1 VH with R59A
VL: DIQMTQSPSSLSASVGDRVTITCRASKTISKYLAWYQQKPGKAPKLLIYSGSTLQSGVPSRFSGSGSGTDFTLTISSLQPEDFATYYCQQHNEYPLTFGQGTKVEIK
notes: as for B1
B10: HuIgG1 mutant AspH65Ala (antibody, V domains shown)
VH: B1 VH with D66A
VL: B9 VL
notes: as for B1
B11: HuIgG1 mutant GlnH61Ala (antibody, V domains shown)
VH: B1 VH with Q62A
VL: B9 VL
notes: as for B1
B12: HuIgG1 mutant GlyH31Ala (antibody, V domains shown)
VH: B1 VH with G31A
VL: B9 VL
notes: as for B1
B13: HuIgG1 mutant H1 (antibody, V domains shown)
VH: B1 VH with S28A, T30A, H32A
VL: B9 VL
notes: as for B1
B14: HuIgG1 mutant H2A2 (antibody, V domains shown)
VH: B1 VH with S54A, S56A
VL: B9 VL
notes: as for B1
B15: HuIgG1 mutant H2A3 (antibody, V domains shown)
VH: B1 VH with H52A, S56A
VL: B9 VL
notes: as for B1
B16: HuIgG1 mutant H3B (antibody, V domains shown)
VH: B1 VH with T105A, T106A, Y107A
VL: B9 VL
notes: as for B1
B17: HuIgG1 mutant HisH32Ala (antibody, V domains shown)
VH: B1 VH with H32A
VL: B9 VL
notes: as for B1
B18: HuIgG1 mutant HisH52Ala (antibody, V domains shown)
VH: B1 VH with H52A
VL: B9 VL
notes: as for B1
B19: HuIgG1 mutant HisH52Ser (antibody, V domains shown)
VH: B1 VH with H52S
VL: B9 VL
notes: as for B1
B20: HuIgG1 mutant LysH62Ala (antibody, V domains shown)
VH: B1 VH with K63A
VL: B9 VL
notes: as for B1
B21: HuIgG1 mutant LysH64Ala (antibody, V domains shown)
VH: B1 VH with K65A
VL: B9 VL
notes: as for B1
B22: HuIgG1 mutant LysH73Ala (antibody, V domains shown)
VH: B1 VH with K74A
VL: B9 VL
notes: as for B1
B23: HuIgG1 mutant LysH73Arg (antibody, V domains shown)
VH: B1 VH with K74R
VL: B9 VL
notes: as for B1
B24: HuIgG1 mutant SerH28Ala (antibody, V domains shown)
VH: B1 VH with S28A
VL: B9 VL
notes: as for B1
B25: HuIgG1 mutant SerH53Ala (antibody, V domains shown)
VH: B1 VH with S54A
VL: B9 VL
notes: as for B1
B26: HuIgG1 mutant SerH55Asn (antibody, V domains shown)
VH: B1 VH with S56N
VL: B9 VL
notes: as for B1
B27: HuIgG1 mutant ThrH100aAla (antibody, V domains shown)
VH: B1 VH with T105A
VL: B9 VL
notes: as for B1
B28: HuIgG1 mutant ThrH100bAla (antibody, V domains shown)
VH: B1 VH with T106A
VL: B9 VL
notes: as for B1
B29: HuIgG1 mutant TyrH97Ala (antibody, V domains shown)
VH: B1 VH with Y101A
VL: B9 VL
notes: as for B1
B30: HuIgG1 mutant TyrH99Ala (antibody, V domains shown)
VH: B1 VH with Y103A
VL: B9 VL
notes: as for B1
B31: HuIgG1 mutant TyrH100cAla (antibody, V domains shown)
VH: B1 VH with Y107A
VL: B9 VL
notes: as for B1

Tests used:
human CD11a = target: T2, human CD11a (human, UniProt P20701 26-1170); experiment: FACScan, Jurkat cells
T2 construct: whole, on cells; On Jurkat T-cells or human peripheral blood mononuclear cells, as part of LFA-1; also called CD11a on Jurkat cells; alpha subunit of LFA-1
Procedure: Aliquots of 10⁶ Jurkat T-cells were incubated with serial dilutions of humanized and control antibodies in PBS-0.1% BSA-10 mM sodium azide for 45 min at 4° C. The cells were washed and then incubated in fluorescein-conjugated goat anti-human F(ab′)₂ (Organon Teknika, Westchester, Pa.) for 45 min at 4° C. Cells were washed and analysed on a FACScan (Becton Dickinson, Mountain View, Calif.). 8×10³ cells were acquired by list mode and gated by forward light scatter versus side light scatter, thereby excluding dead cells and debris.
To determine which CDR residues were involved in binding to human CD11a an alanine-scan (Cunningham et al., Science 244:1081 (1989)) was performed on the CDR residues of HuIgG1. Each mutant was tested for binding to CD11a on Jurkat cells. In the light chain only CDR-L3 contributes to binding.

rhesus CD11a = target: T1, rhesus CD11a; experiment: rhesus PBL binding

Row | Binder | Var.EC50/HuIgG1 EC50 (human CD11a) [ratio] | Var.EC50/HuIgG1 EC50 (rhesus CD11a) [ratio]
1 | B1 | 3.3 | 3.3
2 | B2 | 1.7 | 2.9
3 | B3 | 1.3 | 1
4 | B4 | 1.1 | –
5 | B5 | 1.2 | 2.7
6 | B6 | 1.1 | –
7 | B7 | 0.9 | 0.7
8 | B8 | 11.8 | –
9 | B9 | 1.1 | 3.3
10 | B10 | 0.8 | 1.1
11 | B11 | 4.1 | 5.3
12 | B12 | 1.2 | 2.4
13 | B13 | 5.9 | –
14 | B14 | 1.9 | 1.1
15 | B15 | 4.6 | 1.3
16 | B16 | 34.7 | –

Row | Binder | Var.EC50/HuIgG1 EC50 (human CD11a) [ratio] | Var.EC50/HuIgG1 EC50 (rhesus CD11a) [ratio]
17 | B17 | 2.3 | –
18 | B18 | 1.5 | 0.7
19 | B19 | 5 | –
20 | B20 | 1.8 | 4.9
21 | B21 | 2.5 | 1.2
22 | B22 | 5.2 | –
23 | B23 | 4.6 | 5.5
24 | B24 | 6.9 | –
25 | B25 | 1.8 | 0.7
26 | B26 | 2.1 | –
27 | B27 | 2.3 | –
28 | B28 | 1.4 | –
29 | B29 | 10.9 | –
30 | B30 | 1.4 | –
31 | B31 | 7.6 | –
